Measured values taken from US20250277200A1.

Assays:
[1] = target: C3a (Homo sapiens (Human)) (UniProt P01024); experiment: cell-based or functional assay
[2] = target: C5a (Homo sapiens (Human)) (UniProt P01031); experiment: cell-based or functional assay
Chain of C5a (Homo sapiens (Human)) (P01031 678-751 limits assumed): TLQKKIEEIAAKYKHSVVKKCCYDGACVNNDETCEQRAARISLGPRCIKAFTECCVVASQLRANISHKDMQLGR

Chain of C3a (Homo sapiens (Human)) (P01024 672-748 limits assumed): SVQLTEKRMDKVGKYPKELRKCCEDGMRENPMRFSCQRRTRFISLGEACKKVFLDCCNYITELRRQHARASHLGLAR

% Arg released (Arg LC-MS/MS, supernatant) [1]: 72%
% Arg released (Arg LC-MS/MS, supernatant) [2]: 14%
Substance: TAFI activation peptide-CPN1-HSA (enzyme)
